Experimental findings from US20190185575A1 (ONCOTHERAPY SCIENCE, published 2019) are described below.

The target in this assay is T1, human MELK protein (Maternal Embryonic Leucine zipper Kinase), full-length (human, UniProt Q14680 1-651).
T1 construct: It was detected in formalin-fixed paraffin sections (IHC) or in RIPA lysates after SDS-PAGE (western blot); MELK is an intracellular kinase, so 'on cells' here means in cells or sections; also called full-length MELK protein; endogenous MELK protein
T1 sequence (Q14680 whole entry): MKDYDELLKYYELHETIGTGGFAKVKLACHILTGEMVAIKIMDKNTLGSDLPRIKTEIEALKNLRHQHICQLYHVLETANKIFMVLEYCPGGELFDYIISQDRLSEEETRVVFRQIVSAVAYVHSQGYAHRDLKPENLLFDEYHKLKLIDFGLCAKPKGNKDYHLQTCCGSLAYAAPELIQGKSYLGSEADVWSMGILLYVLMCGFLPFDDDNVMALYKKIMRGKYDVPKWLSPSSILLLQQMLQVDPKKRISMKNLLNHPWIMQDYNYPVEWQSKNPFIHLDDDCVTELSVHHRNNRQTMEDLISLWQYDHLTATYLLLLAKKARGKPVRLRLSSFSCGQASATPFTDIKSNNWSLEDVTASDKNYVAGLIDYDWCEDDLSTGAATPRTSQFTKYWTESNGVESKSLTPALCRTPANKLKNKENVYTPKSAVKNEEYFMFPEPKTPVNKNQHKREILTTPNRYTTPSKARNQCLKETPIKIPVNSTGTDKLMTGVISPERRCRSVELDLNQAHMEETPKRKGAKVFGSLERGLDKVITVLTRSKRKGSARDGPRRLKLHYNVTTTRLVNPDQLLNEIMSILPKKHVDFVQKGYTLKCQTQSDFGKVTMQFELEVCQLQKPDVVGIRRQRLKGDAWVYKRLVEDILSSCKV
Briefly: immunohistochemical staining of formalin-fixed paraffin sections, MELK/293T vs Mock/293T. As to the method:
For antigen activation, sections immersed in the antigen-activating solution, pH 9 (Nichirei Biosciences Inc.) were incubated at 125° C. for 30 seconds. After incubation, these were left to stand for 20 minutes at room temperature, and washed for 5 minutes under running water. After immersing them in 3.0% hydrogen peroxide water for 10 minutes to perform blocking of endogenous peroxidase, they were washed with Wash Buffer (TBS-T (Takara Bio)) three times for 5 minutes. Furthermore, with the aim of blocking non-specific reactions, a suitable amount of Protein Block Solution (Dako) was dropped onto the sections and then left to stand for 10 minutes. The primary antibodies (OTSMAb01, MELK(N449)pAb, MELK(HPA017214)pAb) were respectively dropped in suitable amounts within a humid box, left to stand for 60 minutes, and then washed with the Wash Buffer three times for 5 minutes. Histofine Simple Stain MAX PO (Nichirei Biosciences Inc.) was dropped in suitable amounts as the secondary antibody in a humid box, and left to stand for 30 minutes. These were then washed with the Wash Buffer three times for 5 minutes. The chromogenic reaction was done using the DAB substrate solution (Nichirei Biosciences Inc.). The slide sections were immersed for 20 seconds in haematoxylin (Dako), and washed under running water. […]

B1: anti-MELK mouse monoclonal antibody clone OTSMAb01 (antibody, V domains shown)
VH: EVQLQQSGAELVRPGALVKLSCKASGFNIKDYYMHWVKQRPEQGLEWIGWIDPENGNTIYDPKFQGKASVTADTSSNTAYLQLSSLTSEDTAVYYCTSHHYSAMDYWGQGTSVTVSS
VL: DVVMTQTPLSLPVSLRDQASISCRSSQSLVHSNGNTYLHWYLQKPGQSPKLLIYKVSNRFSGVPDRFSGSGSGTDFTLIISRVEAEDLGVYFCSQSTYVPLTFGAGTKLELKR
notes: Mouse monoclonal antibody from a hybridoma (Balb/c splenocytes x SP2/0), purified from culture solution on a Protein A column; also called anti-MELK antibody (OTSMAb01); hybridoma clone OTSMAb01
As to B1, the binding result was “binds”.
